Experimental data from PMC8013792, “Bacterial protein domains with a novel Ig‐like fold target human CEACAM receptors” (The EMBO Journal, 2021).

B1: tag-less CEACAM1 N-terminal domain, unglycosylated (domain or fragment, human)
chain: AQLTTESMPFNVAEGKEVLLLVHNLPQQLFGYSWYKGERVDGNRQIVGYAIGTQQATPGPANSGRETIYPNASLLIQNVTQNDTGFYTLQVIKSDLVNEEATGQFHVY
notes: CEACAM1, human, N-terminal IgV-like domain, tag-less; also called rCEACAM1-N; CC1-N; source: E. coli (pET21d), purified
B2: IgI3 domain of R28 protein, recombinant, as used in ITC (domain or fragment)
chain: KYSPEAKHRTVEQHAELDAKDSIANTDELPSNSTYNWKNGHKPDTSTSGEKDGIVEVHYPDGTVDDVNVKVTVTSKKTDNTAPTLTVTPEQQTVKVDEDITFTVTVEDENEVELGLDDLKAKYENDIIGARVKIKYLTKEPNKKVMEVTIMKATLADKGAITFTAKDKAGNQAEPKTVTINVLPLK
modifications: Construct limits not printed. 233-418 is the unannotated region between the AlphaC C-terminal domain (ends 232) and the first annotated Rib repeat (starts 419); it should enclose the IgI3 domain …

What was measured:
[1] = biological target: IgSF (IgI3) domain of β protein, recombinant, as used in ITC (Streptococcus agalactiae (GBS)); assay: ITC; iTC200, 25°C, 30 mM Tris-HCl, 150 mM NaCl, pH 7.5; typically 500 µM unglycosylated CEACAM-N domain in the syringe, 50 µM IgI3 domain; duplicates
[2] = biological target: β-IgI3 V53A, as used in ITC (Streptococcus agalactiae (GBS)); assay: as above
[3] = biological target: β-IgI3 D55A, as used in ITC (Streptococcus agalactiae (GBS)); assay: as above
[4] = biological target: β-IgI3 F42A, as used in ITC (Streptococcus agalactiae (GBS)); assay: as above
[5] = biological target: B2; assay: as above; settings: both partners purified
[6] = biological target: B1; assay: as above; settings: both partners purified
[7] = biological target: T1, tag-less unglycosylated CEACAM1 N-terminal domain (rCEACAM1-N, pET21d) (human, UniProt P13688 34-141); assay: ITC; iTC200, 25 °C, 16 injections of 2.42 µL; typically 500 µM unglycosylated CEACAM-N in the syringe and 50 µM β-IgSF/β-IgI3; 30 mM Tris-HCl, 150 mM NaCl, pH 7.5; duplicates; settings: both partners purified
T1 construct: N-terminal IgV-like domain of human CEACAM1; also called rCC1-N; CC1-N; source: E. coli, pET21d, purified as in Bonsor et al, 2015a
T1 sequence: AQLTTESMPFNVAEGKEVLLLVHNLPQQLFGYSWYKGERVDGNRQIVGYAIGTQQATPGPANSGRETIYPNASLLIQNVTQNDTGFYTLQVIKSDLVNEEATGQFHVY

Molecule: tag-less CEACAM1-N N97A, unglycosylated (from UniProt P13688 34-141) (domain or fragment)
- Kd [1]: 490 nM

Molecule: tag-less CEACAM1 N-terminal domain, unglycosylated (from UniProt P13688 34-141) (domain or fragment)
- Kd [2]: 562 nM
- Kd [3]: 690 nM
- Kd [4]: 16 nM
- Kd [1]: 96 nM

Molecule: tag-less CEACAM1-N Q44A, unglycosylated (from UniProt P13688 34-141) (domain or fragment)
- Kd [1]: 996 nM

Molecule: tag-less CEACAM1-N L95A, unglycosylated (from UniProt P13688 34-141) (domain or fragment)
- Kd [1]: 1350 nM

Molecule: tag-less CEACAM1-N V96A, unglycosylated (from UniProt P13688 34-141) (domain or fragment)
- Kd [1]: 370 nM

Molecule: CEACAM5 N-terminal domain, unglycosylated (domain or fragment)
- Kd [1]: 152 nM

Molecule: B1
- dH [5]: -4.8 ± 0.3 kcal/mol

Molecule: B2
- Kd [6]: 1050 ± 18 nM

B3: β-IgI3 L45A (rβIgI3ΔL45A-His) (domain or fragment)
chain: ANENNQQKIELTVSPENITVYEGEDVKFTVTAKSDSKTTLDFSDALTKYNPSVSDRISTNYKTNTDNHKIAEITIKNLKLNESQTVTLKAKDDSGNVVEKTFTITVQKKEEKQ
notes: the substitution is still to be applied; its number counts on the domain's own 1-113; source: E. coli RG (Rosetta Gami), purified (Nickel column)
- Kd [7]: 234 nM

B4: β-IgI3 S52A (rβIgI3ΔS52A-His) (domain or fragment)
chain: ANENNQQKIELTVSPENITVYEGEDVKFTVTAKSDSKTTLDFSDLLTKYNPAVSDRISTNYKTNTDNHKIAEITIKNLKLNESQTVTLKAKDDSGNVVEKTFTITVQKKEEKQ
notes: as for B3
- Kd [7]: 85 nM
